# Key:
# Chd2 locus = test: Chd2^R1684H knock-in by pronuclear injection of Cas9/crRNA/tracrRNA and ssODN, genotyping of cultured embryos; format: cell-based, mouse
# Description: tracrRNA, crRNAs, and ssODNs were synthesized by Integrated DNA Technologies (TABLE 1). All injection mixtures were prepared in a final volume of 50 μL according to the following methodology: Using RNase-free water, reagents, and consumables, crRNA (final concentration 0.61 μM), tracrRNA (final concentration 0.61 μM), and ultrapure Tris-HCl, pH 7.39 (final concentration 10 mM, ThermoFisher) were mixed and incubated at 95° C. for 5 minutes. The mixtures were cooled to room temperature for 10 minutes on the benchtop, and then, EnGen Cas9-NLS S. pyogenes (New England Biolabs) was added to a final concentration of 30 ng/μL. The mixtures were incubated at 37° C. for 15 minutes before adding any remaining components: ssODN (final concentration 3 ng/μL or 30 ng/μL), RAD51 (Creative Biomart, final concentration 10 ng/μL). Injection mixtures were stored on ice and briefly heated to 37° C. prior to injection. For experiments utilizing RS-1, embryos were cultured in KSOM-AA (EMD Millipore MR-121-D) with […] RS-1 (Sigma) dissolved in DMSO or DMSO (Sigma, 1:1000) for 24 hours, washed, and cultured in EmbryoMax FHM HEPES Buffered Medium (Sigma) until collection for genotyping.
# Female mice (4-5 weeks old, C57BL/6N) were superovulated by IP injection of PMS (5 IU/mouse, three days prior to microinjection) and hCG (5 IU/mouse, 47 hours after PMS injection) and then paired with males. […]
# R1684H locus = test: Genotyping of F1 offspring of F0 Chd2^R1684H/R1684H animals made by the IVF strategy; format: in vivo, mouse; details: F0 homozygotes (IVF strategy including RAD51) crossed with wildtype C57Bl/6N
# Description: Tail snips (˜0.5 cm length) were collected from animals, placed in 75 μL alkaline lysis buffer (25 mM NaOH, 0.2 mM EDTA), and incubated at 95° C. for 30 minutes. Digestion was stopped via addition of 75 μL neutralization buffer (40 mM Tris-HCl pH 5.0). Samples were stored at 4° C. until genotyping.
# Chd2^R1684H genotyping was performed via a two-step, nested approach. Except for experiments described in FIGS. 3A-3G, all 8 μL of embryo DNA were used as input for the initial, long round of PCR. Genotyping of mouse pups and adult animals was performed using 2 μL of purified tail DNA. For all embryo genotyping, reactions mixtures were set up in a UV-sterilized laminar flow hood using sterile reagents and filter tips to avoid contamination. All PCR was performed using Biolase DNA Polymerase (Bioline), fresh aliquots of dNTPs (New England Biolabs), and 2% DMSO (final concentration). Primer pair #1 was used for FIGS. 1A-1E, FIGS. 2A-2E, FIGS. 3A-3G, FIG. 5, FIGS. 7A-7C, FIG. 8, and FIG. 9. All other experiments utilized primer pair #2 to further rule out large deletions that could disrupt primer binding sites. 20 cycles of amplification were performed using 30 second extension and annealing times and an annealing temperature of 67° C. Nested PCR was then performed using 2 μL of the initial 25 μL PCR reaction as input. […]
molecule,measurement,setting,value
"RAD51: recombinant human strand exchange protein RAD51 (Creative Biomart RAD51-134H), transcript variant 4 (protein, UniProt Q06609 2-339, looked up) DNA repair protein RAD51 …: AMQMQLEANADTSVEEESFGPQPISRLEQCGINANDVKKLEEAGFHTVEAVAYAPKKELINIKGISEAKADKILAEAAKLVPMGFTTATEFHQRRSEIIQITTGSKELDKLLQGGIETGSITEMFGEFRTGKTQICHTLAVTCQLPIDRGGGEGKAMYIDTEGTFRPERLLAVAERYGLSGSDVLDNVAYARAFNTDHQTQLLYQASAMMVESRYALLIVDSATALYRTDYSGRGELSARQMHLARFLRMLLRLADEFGVAVVITNQVVAQVDGAAMFAADPKKPIGGNIIAHASTTRLYLRKGRGETRICKIYDSPCLPEAEAMFAINADGVGDAKD",homozygous KI rate relative to injection without RAD51,Chd2 locus,more than doubled
same,F1 offspring heterozygous for the R1684H mutation,R1684H locus,100%

# Source: patent publication US11643670B2, “Methods of enhancing chromosomal homologous recombination” (Massachusetts Institute of Technology, priority 2018, dated 2023)
